# Measurements from PMC7954794, “Protein context shapes the specificity of SH3 domain-mediated interactions in vivo” (Nature Communications, 2021).
# B1: S. cerevisiae Abp1 (full length; SH3 domain 535-592 mutated) / Hua2 (parent)
# chain 1: MALEPIDYTTHSREIDAEYLKIVRGSDPDTTWLIISPNAKKEYEPESTGSSFHDFLQLFDETKVQYGLARVSPPGSDVEKIIIIGWCPDSAPLKTRASFAANFAAVANNLFKGYHVQVTARDEDDLDENELLMKISNAAGARYSIQTSSKQQGKASTPPVKKSFTPSKSPAPVSKKEPVKTPSPAPAAKISSRVNDNNDDDDWNEPELKERDFDQAPLKPNQSSYKPIGKIDLQKVIAEEKAKEDPRLVQKPTAAGSKIDPSSDIANLKNESKLKRDSEFNSFLGTTKPPSMTESSLKNDDDKVIKGFRNEKSPAQLWAERKAKQNSGNAETKAEAPKPEVPEDEPEGEPDVKDLKSKFEGLAASEKEEEEMENKFAPPPKKSEPTIISPKPFSKPQEPVKAEEAEQPKTDYKKIGNPLPGMHIEADNEEEPEENDDDWDDDEDEAAQPPLPSRNVASGAPVQKEEPEQEEIAPSLPSRNSIPAPKQEEAPEQAPEEEIEEEAEEAAPQLPSRSSAAPPPPPRRATPEKKPKENPWATAEYDYDAAEDNELTFVENDKIINIEFVDDDWWLGELEKDGSKGLFPSNYVSLGN
# chain 2: MQQTKFGKMYLDHDSVVEYSEDEIVEADRITLGYKKRLSMIENQMRHLLEDFSLDVQQIEPILADLQKYYDAFLQLLQKRNKSLQCKRSTHQPVPSPMNSQTSTNAKVNLSGKLMKFQLNSVQKFDEENILRILQNKIEFEHYFQIDKGKKQKVLLLAVYQCLNGPTRLHKVLNIEGIIHNNSIRTILGKQVSSSKWTVFLYDVKLVLLAHRQDVPNLETSKMIVRYGDLFPCALYFKDHTAY
# Variants of: B1
# Test: DHFR protein-fragment complementation in yeast (Abp1-DHFR F[1,2] x partner-DHFR F[3]), deep mutational scanning, second methotrexate selection vs reference
# Details: with Hua2; S. cerevisiae, DHFR-PCA selection in liquid with methotrexate at 30 C, two 72 h selections (the score uses the second); reference = the pre-selection culture; value at the no-binding floor (a bound); scale: DMS score: mean over two replicates of log2(f_test/f_ref + 0.5)/ln 2, minus the synonymous-codon median
row,screen value,Variant
1,-3.03,chain 1 MALEPIDYTTHSREIDAEYLKIVRGSDPDTTWLIISPNAKKEYEPESTGSSFHDFLQLFDETKVQYGLARVSPPGSDVEKIIIIGWCPDSAPLKTRASFAANFAAVANNLFKGYHVQVTARDEDDLDENELLMKISNAAGARYSIQTSSKQQGKASTPPVKKSFTPSKSPAPVSKKEPVKTPSPAPAAKISSRVNDNNDDDDWNEPELKERDFDQAPLKPNQSSYKPIGKIDLQKVIAEEKAKEDPRLVQKPTAAGSKIDPSSDIANLKNESKLKRDSEFNSFLGTTKPPSMTESSLKNDDDKVIKGFRNEKSPAQLWAERKAKQNSGNAETKAEAPKPEVPEDEPEGEPDVKDLKSKFEGLAASEKEEEEMENKFAPPPKKSEPTIISPKPFSKPQEPVKAEEAEQPKTDYKKIGNPLPGMHIEADNEEEPEENDDDWDDDEDEAAQPPLPSRNVASGAPVQKEEPEQEEIAPSLPSRNSIPAPKQEEAPEQAPEEEIEEEAEEAAPQLPSRSSAAPPPPPRRATPEKKPKENPWATAEYDYDAAEDNELTFVENDKIINIEFVDKDWWLGELEKDGSKGLFPSNYVSLGN [chain 1 D567K]
2,< -3.06,chain 1 MALEPIDYTTHSREIDAEYLKIVRGSDPDTTWLIISPNAKKEYEPESTGSSFHDFLQLFDETKVQYGLARVSPPGSDVEKIIIIGWCPDSAPLKTRASFAANFAAVANNLFKGYHVQVTARDEDDLDENELLMKISNAAGARYSIQTSSKQQGKASTPPVKKSFTPSKSPAPVSKKEPVKTPSPAPAAKISSRVNDNNDDDDWNEPELKERDFDQAPLKPNQSSYKPIGKIDLQKVIAEEKAKEDPRLVQKPTAAGSKIDPSSDIANLKNESKLKRDSEFNSFLGTTKPPSMTESSLKNDDDKVIKGFRNEKSPAQLWAERKAKQNSGNAETKAEAPKPEVPEDEPEGEPDVKDLKSKFEGLAASEKEEEEMENKFAPPPKKSEPTIISPKPFSKPQEPVKAEEAEQPKTDYKKIGNPLPGMHIEADNEEEPEENDDDWDDDEDEAAQPPLPSRNVASGAPVQKEEPEQEEIAPSLPSRNSIPAPKQEEAPEQAPEEEIEEEAEEAAPQLPSRSSAAPPPPPRRATPEKKPKENPWATAEYDYDAAEDNELTFVENDKIINIEFVDIDWWLGELEKDGSKGLFPSNYVSLGN [chain 1 D567I]
3,< -3.06,chain 1 MALEPIDYTTHSREIDAEYLKIVRGSDPDTTWLIISPNAKKEYEPESTGSSFHDFLQLFDETKVQYGLARVSPPGSDVEKIIIIGWCPDSAPLKTRASFAANFAAVANNLFKGYHVQVTARDEDDLDENELLMKISNAAGARYSIQTSSKQQGKASTPPVKKSFTPSKSPAPVSKKEPVKTPSPAPAAKISSRVNDNNDDDDWNEPELKERDFDQAPLKPNQSSYKPIGKIDLQKVIAEEKAKEDPRLVQKPTAAGSKIDPSSDIANLKNESKLKRDSEFNSFLGTTKPPSMTESSLKNDDDKVIKGFRNEKSPAQLWAERKAKQNSGNAETKAEAPKPEVPEDEPEGEPDVKDLKSKFEGLAASEKEEEEMENKFAPPPKKSEPTIISPKPFSKPQEPVKAEEAEQPKTDYKKIGNPLPGMHIEADNEEEPEENDDDWDDDEDEAAQPPLPSRNVASGAPVQKEEPEQEEIAPSLPSRNSIPAPKQEEAPEQAPEEEIEEEAEEAAPQLPSRSSAAPPPPPRRATPEKKPKENPWATAEYDYDAAEDNELTFVENDKIINIEFVDCDWWLGELEKDGSKGLFPSNYVSLGN [chain 1 D567C]
4,-3.03,chain 1 MALEPIDYTTHSREIDAEYLKIVRGSDPDTTWLIISPNAKKEYEPESTGSSFHDFLQLFDETKVQYGLARVSPPGSDVEKIIIIGWCPDSAPLKTRASFAANFAAVANNLFKGYHVQVTARDEDDLDENELLMKISNAAGARYSIQTSSKQQGKASTPPVKKSFTPSKSPAPVSKKEPVKTPSPAPAAKISSRVNDNNDDDDWNEPELKERDFDQAPLKPNQSSYKPIGKIDLQKVIAEEKAKEDPRLVQKPTAAGSKIDPSSDIANLKNESKLKRDSEFNSFLGTTKPPSMTESSLKNDDDKVIKGFRNEKSPAQLWAERKAKQNSGNAETKAEAPKPEVPEDEPEGEPDVKDLKSKFEGLAASEKEEEEMENKFAPPPKKSEPTIISPKPFSKPQEPVKAEEAEQPKTDYKKIGNPLPGMHIEADNEEEPEENDDDWDDDEDEAAQPPLPSRNVASGAPVQKEEPEQEEIAPSLPSRNSIPAPKQEEAPEQAPEEEIEEEAEEAAPQLPSRSSAAPPPPPRRATPEKKPKENPWATAEYDYDAAEDNELTFVENDKIINIEFVRDDWWLGELEKDGSKGLFPSNYVSLGN [chain 1 D566R]
5,< -3.06,chain 1 MALEPIDYTTHSREIDAEYLKIVRGSDPDTTWLIISPNAKKEYEPESTGSSFHDFLQLFDETKVQYGLARVSPPGSDVEKIIIIGWCPDSAPLKTRASFAANFAAVANNLFKGYHVQVTARDEDDLDENELLMKISNAAGARYSIQTSSKQQGKASTPPVKKSFTPSKSPAPVSKKEPVKTPSPAPAAKISSRVNDNNDDDDWNEPELKERDFDQAPLKPNQSSYKPIGKIDLQKVIAEEKAKEDPRLVQKPTAAGSKIDPSSDIANLKNESKLKRDSEFNSFLGTTKPPSMTESSLKNDDDKVIKGFRNEKSPAQLWAERKAKQNSGNAETKAEAPKPEVPEDEPEGEPDVKDLKSKFEGLAASEKEEEEMENKFAPPPKKSEPTIISPKPFSKPQEPVKAEEAEQPKTDYKKIGNPLPGMHIEADNEEEPEENDDDWDDDEDEAAQPPLPSRNVASGAPVQKEEPEQEEIAPSLPSRNSIPAPKQEEAPEQAPEEEIEEEAEEAAPQLPSRSSAAPPPPPRRATPEKKPKENPWATAEYDYDAAEDNELTFVENDKIINIEFVSDDWWLGELEKDGSKGLFPSNYVSLGN [chain 1 D566S]
6,< -3.06,chain 1 MALEPIDYTTHSREIDAEYLKIVRGSDPDTTWLIISPNAKKEYEPESTGSSFHDFLQLFDETKVQYGLARVSPPGSDVEKIIIIGWCPDSAPLKTRASFAANFAAVANNLFKGYHVQVTARDEDDLDENELLMKISNAAGARYSIQTSSKQQGKASTPPVKKSFTPSKSPAPVSKKEPVKTPSPAPAAKISSRVNDNNDDDDWNEPELKERDFDQAPLKPNQSSYKPIGKIDLQKVIAEEKAKEDPRLVQKPTAAGSKIDPSSDIANLKNESKLKRDSEFNSFLGTTKPPSMTESSLKNDDDKVIKGFRNEKSPAQLWAERKAKQNSGNAETKAEAPKPEVPEDEPEGEPDVKDLKSKFEGLAASEKEEEEMENKFAPPPKKSEPTIISPKPFSKPQEPVKAEEAEQPKTDYKKIGNPLPGMHIEADNEEEPEENDDDWDDDEDEAAQPPLPSRNVASGAPVQKEEPEQEEIAPSLPSRNSIPAPKQEEAPEQAPEEEIEEEAEEAAPQLPSRSSAAPPPPPRRATPEKKPKENPWATAEYDYDAAEDNELTFVENDKIINIEFVCDDWWLGELEKDGSKGLFPSNYVSLGN [chain 1 D566C]
7,-2.99,chain 1 MALEPIDYTTHSREIDAEYLKIVRGSDPDTTWLIISPNAKKEYEPESTGSSFHDFLQLFDETKVQYGLARVSPPGSDVEKIIIIGWCPDSAPLKTRASFAANFAAVANNLFKGYHVQVTARDEDDLDENELLMKISNAAGARYSIQTSSKQQGKASTPPVKKSFTPSKSPAPVSKKEPVKTPSPAPAAKISSRVNDNNDDDDWNEPELKERDFDQAPLKPNQSSYKPIGKIDLQKVIAEEKAKEDPRLVQKPTAAGSKIDPSSDIANLKNESKLKRDSEFNSFLGTTKPPSMTESSLKNDDDKVIKGFRNEKSPAQLWAERKAKQNSGNAETKAEAPKPEVPEDEPEGEPDVKDLKSKFEGLAASEKEEEEMENKFAPPPKKSEPTIISPKPFSKPQEPVKAEEAEQPKTDYKKIGNPLPGMHIEADNEEEPEENDDDWDDDEDEAAQPPLPSRNVASGAPVQKEEPEQEEIAPSLPSRNSIPAPKQEEAPEQAPEEEIEEEAEEAAPQLPSRSSAAPPPPPRRATPEKKPKENPWATAEYDYDAAEDNELTFVENDKIINIEFVFDDWWLGELEKDGSKGLFPSNYVSLGN [chain 1 D566F]

# Same assay, conditions: with Hua2; S. cerevisiae, DHFR-PCA selection in liquid with methotrexate at 30 C, two 72 h selections (the score uses the second); reference = the pre-selection culture; not an affinity; value at the no-binding floor (a bound); scale: DMS score: mean over two replicates of log2(f_test/f_ref + 0.5)/ln 2, minus the synonymous-codon median
row,screen value,Variant
1,-3,chain 1 MALEPIDYTTHSREIDAEYLKIVRGSDPDTTWLIISPNAKKEYEPESTGSSFHDFLQLFDETKVQYGLARVSPPGSDVEKIIIIGWCPDSAPLKTRASFAANFAAVANNLFKGYHVQVTARDEDDLDENELLMKISNAAGARYSIQTSSKQQGKASTPPVKKSFTPSKSPAPVSKKEPVKTPSPAPAAKISSRVNDNNDDDDWNEPELKERDFDQAPLKPNQSSYKPIGKIDLQKVIAEEKAKEDPRLVQKPTAAGSKIDPSSDIANLKNESKLKRDSEFNSFLGTTKPPSMTESSLKNDDDKVIKGFRNEKSPAQLWAERKAKQNSGNAETKAEAPKPEVPEDEPEGEPDVKDLKSKFEGLAASEKEEEEMENKFAPPPKKSEPTIISPKPFSKPQEPVKAEEAEQPKTDYKKIGNPLPGMHIEADNEEEPEENDDDWDDDEDEAAQPPLPSRNVASGAPVQKEEPEQEEIAPSLPSRNSIPAPKQEEAPEQAPEEEIEEEAEEAAPQLPSRSSAAPPPPPRRATPEKKPKENPWATAEYDYDAAEDNELTFVENDKIINIEFVDDDWWLGELEKDGSKGLFPSNGVSLGN [chain 1 Y587G]
2,-2.98,chain 1 MALEPIDYTTHSREIDAEYLKIVRGSDPDTTWLIISPNAKKEYEPESTGSSFHDFLQLFDETKVQYGLARVSPPGSDVEKIIIIGWCPDSAPLKTRASFAANFAAVANNLFKGYHVQVTARDEDDLDENELLMKISNAAGARYSIQTSSKQQGKASTPPVKKSFTPSKSPAPVSKKEPVKTPSPAPAAKISSRVNDNNDDDDWNEPELKERDFDQAPLKPNQSSYKPIGKIDLQKVIAEEKAKEDPRLVQKPTAAGSKIDPSSDIANLKNESKLKRDSEFNSFLGTTKPPSMTESSLKNDDDKVIKGFRNEKSPAQLWAERKAKQNSGNAETKAEAPKPEVPEDEPEGEPDVKDLKSKFEGLAASEKEEEEMENKFAPPPKKSEPTIISPKPFSKPQEPVKAEEAEQPKTDYKKIGNPLPGMHIEADNEEEPEENDDDWDDDEDEAAQPPLPSRNVASGAPVQKEEPEQEEIAPSLPSRNSIPAPKQEEAPEQAPEEEIEEEAEEAAPQLPSRSSAAPPPPPRRATPEKKPKENPWATAEYDYDAAEDNELTFVENDKIINIEFVDDDWWLGELEKDGSKGLFPSNEVSLGN [chain 1 Y587E]
3,< -3.06,chain 1 MALEPIDYTTHSREIDAEYLKIVRGSDPDTTWLIISPNAKKEYEPESTGSSFHDFLQLFDETKVQYGLARVSPPGSDVEKIIIIGWCPDSAPLKTRASFAANFAAVANNLFKGYHVQVTARDEDDLDENELLMKISNAAGARYSIQTSSKQQGKASTPPVKKSFTPSKSPAPVSKKEPVKTPSPAPAAKISSRVNDNNDDDDWNEPELKERDFDQAPLKPNQSSYKPIGKIDLQKVIAEEKAKEDPRLVQKPTAAGSKIDPSSDIANLKNESKLKRDSEFNSFLGTTKPPSMTESSLKNDDDKVIKGFRNEKSPAQLWAERKAKQNSGNAETKAEAPKPEVPEDEPEGEPDVKDLKSKFEGLAASEKEEEEMENKFAPPPKKSEPTIISPKPFSKPQEPVKAEEAEQPKTDYKKIGNPLPGMHIEADNEEEPEENDDDWDDDEDEAAQPPLPSRNVASGAPVQKEEPEQEEIAPSLPSRNSIPAPKQEEAPEQAPEEEIEEEAEEAAPQLPSRSSAAPPPPPRRATPEKKPKENPWATAEYDYDAAEDNELTFVENDKIINIEFVDDDWWLGELEKDGSKGLFPSNPVSLGN [chain 1 Y587P]
